Target: biotinylated K^d-SYIPSAEK(ABA)I (H-2K^d heavy chain, human β2-microglobulin, photoreactive PbCS(ABA) peptide) (not stated | human | Plasmodium berghei)
Assay: SPR

## soluble CD8αβ (extracellular portions of murine CD8α and CD8β fused to leucine zipper units) (complex)
  Kd: 99 µM

Reference: PMC2193676
